Measured values as given in article PMC3549490.

Target: UNC-45 (C. elegans), full-length recombinant protein (C. elegans)
Test: ITC

Binder | Kd
EDASRMEEVD [Hsp90 (DAF-21) C-terminal peptide …] | 14 µM
AGGPTIEEVD [Hsp70 (HSP-1) C-terminal peptide …] | 120 µM
